Test results published in US10766952B2, “Methods for reducing migraine frequency in a subject in need thereof” (Beth Israel Deaconess Medical Center, Inc., priority 2017, dated 2020).

System: naïve wide-dynamic range (WDR) trigeminovascular neurons
Test: Single-unit recording of naïve central trigeminovascular neurons, WDR neurons
Assay type: in vivo, rat
Settings: 30 mg/kg IV
Description: Experiments were approved by the Beth Israel Deaconess Medical Center and Harvard Medical School standing committees on animal care, and in accordance with the U.S. National Institutes of Health Guide for the Care and Use of Laboratory Animals. Male and female Sprague-Dawley rats (250-350 g) were anesthetized with urethane (0.9-1.2 g/kg i.p.). They were fitted with an intra-tracheal tube to allow artificial ventilation (0.1 L/min of (O2), and an intra-femoral-vein cannula for later infusion of drugs. Rats were placed in a stereotaxic apparatus, and core temperature was kept at 37° C. using a heating blanket. End-tidal […] was continuously monitored and kept within physiological range (3.5-4.5 pCO2). Once stabilized, rats were paralyzed with rocuronium bromide (10 mg/ml, 1 ml/hr continuous intravenous infusion) and ventilated. For stimulation of the cranial dura later in the experiment, a 5×5-mm opening was carefully carved in the parietal and occipital bones in front and behind the lambda suture, directly above the left transverse sinus. The exposed dura was kept moist using a modified synthetic interstitial fluid (135 mM NaCl, 5 mM KCl, 1 mM MgCl2, 5 mM CaCl2, 10 mM glucose and 10 mM Hepes, pH 7.2). […]
To record neuronal activity, a tungsten microelectrode (impedance 3-4 MΩ) was lowered repeatedly into the spinal trigeminal nucleus (STN) in search of central trigeminovascular neurons receiving convergent input from the dura and facial skin. […] Responses to mechanical stimulation of the skin were determined by applying brief (10 s) innocuous and noxious stimuli to the most sensitive portion of the cutaneous receptive field. […] Real-time waveform discriminator was used to create and store a template for the action potential evoked in the neuron under study by electrical pulses on the dura; spikes of activity matching the template waveform were acquired and analyzed online and offline using Spike 2 software (CED, Cambridge, UK). […]

B1: fremanezumab (antibody)
heavy: EVQLVESGGGLVQPGGSLRLSCAASGFTFSNYWISWVRQAPGKGLEWVAEIRSESDASATHYAEAVKGRFTISRDNAKNSLYLQMNSLRAEDTAVYYCLAYFDYGLAIQNYWGQGTLVTVSSASTKGPSVFPLAPCSRSTSESTAALGCLVKDYFPEPVTVSWNSGALTSGVHTFPAVLQSSGLYSLSSVVTVPSSNFGTQTYTCNVDHKPSNTKVDKTVERKCCVECPPCPAPPVAGPSVFLFPPKPKDTLMISRTPEVTCVVVDVSHEDPEVQFNWYVDGVEVHNAKTKPREEQFNSTFRVVSVLTVVHQDWLNGKEYKCKVSNKGLPSSIEKTISKTKGQPREPQVYTLPPSREEMTKNQVSLTCLVKGFYPSDIAVEWESNGQPENNYKTTPPMLDSDGSFFLYSKLTVDKSRWQQGNVFSCSVMHEALHNHYTQKSLSLSPGK
light: EIVLTQSPATLSLSPGERATLSCKASKRVTTYVSWYQQKPGQAPRLLIYGASNRYLGIPARFSGSGSGTDFTLTISSLEPEDFAVYYCSQSYNYPYTFGQGTKLEIKRTVAAPSVFIFPPSDEQLKSGTASVVCLLNNFYPREAKVQWKVDNALQSGNSQESVTEQDSKDSTYSLSSTLTLSKADYEKHKVYACEVTHQGLSSPVTKSFNRGEC
notes: humanized anti-CGRP antagonist antibody, vectors ATCC PTA-6867 and PTA-6866
- spontaneous activity of WDR neurons (female rats): did not reduce the spontaneous activity
- sensitivity of WDR neurons to mechanical stimulation of the dura (male and female rats): not the WDR neurons
- responses of WDR neurons to innocuous (brush, pressure) or noxious (pinch) mechanical stimulation of the skin or the cornea (male or female rats): did not alter the responses
